Measurements reported in US20130274191A1 (THOMAS JEFFERSON UNIVERSITY, published 2013).
Non-standard residues stand in square brackets, D forms with d. No end group written: not given here. Sar = CNCC(=O)O

Biological target: T1, human Angiotensin II type 1 receptor (AT1R) (human, UniProt P30556 1-359, limits assumed)
T1 sequence (looked up): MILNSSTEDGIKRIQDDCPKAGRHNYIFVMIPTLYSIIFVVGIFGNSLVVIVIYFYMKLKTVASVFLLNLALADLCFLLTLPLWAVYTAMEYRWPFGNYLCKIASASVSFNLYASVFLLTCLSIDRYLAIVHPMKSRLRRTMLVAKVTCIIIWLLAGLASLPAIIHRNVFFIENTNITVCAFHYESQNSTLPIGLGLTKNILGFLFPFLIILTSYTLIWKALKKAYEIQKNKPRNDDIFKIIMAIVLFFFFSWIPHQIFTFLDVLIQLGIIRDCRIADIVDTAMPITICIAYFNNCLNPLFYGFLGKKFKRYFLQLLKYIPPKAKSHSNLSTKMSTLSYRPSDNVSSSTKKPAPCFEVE
Test: cell-based or functional assay

[Sar]RVY[Cys(Et)]HPL [CORET: Sar^1,Cys(Et)^5,Leu^8-AngII]
βarr activation by the AT1R, potency relative to AngII: 10 times less potent than AngII
